Data as given in the supplement of paper PMC10567573.

B1: SMTNL2 (parent)
chain: AFTMAENLANCERLIEVEDMMVMG

Variants of: B1
Experiment: protein stability index of a GFP-peptide fusion (GPS, HEK-293T) (PSI 1-6); higher = more stable
Details: c terminus: a fixed tail appended
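Note: lentivirally expressed fusions sorted by FACS into six bins by GFP to DsRed ratio, PSI derived from sequencing read proportions per bin multiplied by bin number.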

Compared with AWTMAENLANCERLIEVEDMMVMG [F2W], AYTMAENLANCERLIEVEDMMVMG [F2Y] is higher in protein stability index: 2.07 for the first, 2.22 for the second.

Compared with AFAMAENLANCERLIEVEDMMVMG [T3A], AFCMAENLANCERLIEVEDMMVMG [T3C] is lower in protein stability index: 2.06 for the first, 1.85 for the second.

Compared with AFDMAENLANCERLIEVEDMMVMG [T3D], AFEMAENLANCERLIEVEDMMVMG [T3E] is lower in protein stability index: 2.85 for the first, 2.15 for the second.

Compared with AFFMAENLANCERLIEVEDMMVMG [T3F], AFGMAENLANCERLIEVEDMMVMG [T3G] is higher in protein stability index: 1.71 for the first, 2.91 for the second.

Going from AFHMAENLANCERLIEVEDMMVMG [T3H] to AFIMAENLANCERLIEVEDMMVMG [T3I], the protein stability index falls from 2.24 to 1.72.

Compared with AFKMAENLANCERLIEVEDMMVMG [T3K], AFLMAENLANCERLIEVEDMMVMG [T3L] is lower in protein stability index: 2.03 for the first, 1.77 for the second.

Compared with AFMMAENLANCERLIEVEDMMVMG [T3M], AFNMAENLANCERLIEVEDMMVMG [T3N] is higher in protein stability index: 1.96 for the first, 2.42 for the second.

Compared with AFPMAENLANCERLIEVEDMMVMG [T3P], AFQMAENLANCERLIEVEDMMVMG [T3Q] is lower in protein stability index: 3.15 for the first, 2.13 for the second.

Compared with AFRMAENLANCERLIEVEDMMVMG [T3R], AFSMAENLANCERLIEVEDMMVMG [T3S] is higher in protein stability index: 2.11 for the first, 2.12 for the second.

Going from AFVMAENLANCERLIEVEDMMVMG [T3V] to AFWMAENLANCERLIEVEDMMVMG [T3W], the protein stability index falls from 1.79 to 1.74.

First: AFYMAENLANCERLIEVEDMMVMG [T3Y]
Second: AFTAAENLANCERLIEVEDMMVMG [M4A]
The protein stability index of the first is lower: 2.06 for the first, 4.14 for the second.

First: AFTCAENLANCERLIEVEDMMVMG [M4C]
Second: AFTDAENLANCERLIEVEDMMVMG [M4D]
The protein stability index of the first is lower: 3.13 for the first, 4.08 for the second.

Going from AFTEAENLANCERLIEVEDMMVMG [M4E] to AFTFAENLANCERLIEVEDMMVMG [M4F], the protein stability index falls from 4.4 to 2.51.

First: AFTGAENLANCERLIEVEDMMVMG [M4G]
Second: AFTHAENLANCERLIEVEDMMVMG [M4H]
The protein stability index of the first is higher: 4.19 for the first, 3.81 for the second.

Compared with AFTIAENLANCERLIEVEDMMVMG [M4I], AFTKAENLANCERLIEVEDMMVMG [M4K] is higher in protein stability index: 2.96 for the first, 3.77 for the second.

Compared with AFTLAENLANCERLIEVEDMMVMG [M4L], AFTNAENLANCERLIEVEDMMVMG [M4N] is higher in protein stability index: 1.63 for the first, 3.76 for the second.

First: AFTPAENLANCERLIEVEDMMVMG [M4P]
Second: AFTQAENLANCERLIEVEDMMVMG [M4Q]
The protein stability index of the first is lower: 3.74 for the first, 4.04 for the second.

Compared with AFTRAENLANCERLIEVEDMMVMG [M4R], AFTSAENLANCERLIEVEDMMVMG [M4S] is higher in protein stability index: 3.22 for the first, 4.04 for the second.

Compared with AFTTAENLANCERLIEVEDMMVMG [M4T], AFTVAENLANCERLIEVEDMMVMG [M4V] is lower in protein stability index: 3.78 for the first, 3.18 for the second.

First: AFTWAENLANCERLIEVEDMMVMG [M4W]
Second: AFTYAENLANCERLIEVEDMMVMG [M4Y]
The protein stability index of the first is lower: 2.27 for the first, 3.13 for the second.

Going from AFTMCENLANCERLIEVEDMMVMG [A5C] to AFTMDENLANCERLIEVEDMMVMG [A5D], the protein stability index rises from 2.27 to 3.78.

Compared with AFTMEENLANCERLIEVEDMMVMG [A5E], AFTMFENLANCERLIEVEDMMVMG [A5F] is lower in protein stability index: 4.16 for the first, 2.07 for the second.

Compared with AFTMGENLANCERLIEVEDMMVMG [A5G], AFTMHENLANCERLIEVEDMMVMG [A5H] is lower in protein stability index: 3.11 for the first, 2.01 for the second.

First: AFTMIENLANCERLIEVEDMMVMG [A5I]
Second: AFTMKENLANCERLIEVEDMMVMG [A5K]
The protein stability index of the first is higher: 3.19 for the first, 2.51 for the second.

Compared with AFTMLENLANCERLIEVEDMMVMG [A5L], AFTMMENLANCERLIEVEDMMVMG [A5M] is higher in protein stability index: 2.48 for the first, 2.58 for the second.

Going from AFTMNENLANCERLIEVEDMMVMG [A5N] to AFTMPENLANCERLIEVEDMMVMG [A5P], the protein stability index rises from 2.7 to 3.44.

Going from AFTMQENLANCERLIEVEDMMVMG [A5Q] to AFTMRENLANCERLIEVEDMMVMG [A5R], the protein stability index falls from 2.05 to 1.93.

First: AFTMSENLANCERLIEVEDMMVMG [A5S]
Second: AFTMTENLANCERLIEVEDMMVMG [A5T]
The protein stability index of the first is lower: 2.55 for the first, 2.83 for the second.

Going from AFTMVENLANCERLIEVEDMMVMG [A5V] to AFTMWENLANCERLIEVEDMMVMG [A5W], the protein stability index falls from 2.03 to 1.81.

Going from AFTMYENLANCERLIEVEDMMVMG [A5Y] to AFTMAANLANCERLIEVEDMMVMG [E6A], the protein stability index falls from 2.71 to 1.83.

Going from AFTMACNLANCERLIEVEDMMVMG [E6C] to AFTMADNLANCERLIEVEDMMVMG [E6D], the protein stability index rises from 2.27 to 2.8.

Compared with AFTMAFNLANCERLIEVEDMMVMG [E6F], AFTMAGNLANCERLIEVEDMMVMG [E6G] is lower in protein stability index: 2.45 for the first, 2.15 for the second.

First: AFTMAHNLANCERLIEVEDMMVMG [E6H]
Second: AFTMAINLANCERLIEVEDMMVMG [E6I]
The protein stability index of the first is lower: 2.09 for the first, 2.69 for the second.

Compared with AFTMAKNLANCERLIEVEDMMVMG [E6K], AFTMAMNLANCERLIEVEDMMVMG [E6M] is higher in protein stability index: 1.77 for the first, 4.33 for the second.

Going from AFTMANNLANCERLIEVEDMMVMG [E6N] to AFTMAPNLANCERLIEVEDMMVMG [E6P], the protein stability index rises from 1.96 to 2.89.

Compared with AFTMAQNLANCERLIEVEDMMVMG [E6Q], AFTMARNLANCERLIEVEDMMVMG [E6R] is higher in protein stability index: 1.3 for the first, 1.51 for the second.

First: AFTMASNLANCERLIEVEDMMVMG [E6S]
Second: AFTMATNLANCERLIEVEDMMVMG [E6T]
The protein stability index of the first is lower: 1.65 for the first, 1.74 for the second.

Compared with AFTMAWNLANCERLIEVEDMMVMG [E6W], AFTMAYNLANCERLIEVEDMMVMG [E6Y] is higher in protein stability index: 1.81 for the first, 2.76 for the second.

Going from AFTMAEALANCERLIEVEDMMVMG [N7A] to AFTMAECLANCERLIEVEDMMVMG [N7C], the protein stability index rises from 2.83 to 3.03.

Going from AFTMAEDLANCERLIEVEDMMVMG [N7D] to AFTMAEELANCERLIEVEDMMVMG [N7E], the protein stability index falls from 3.11 to 2.21.

Compared with AFTMAEFLANCERLIEVEDMMVMG [N7F], AFTMAEGLANCERLIEVEDMMVMG [N7G] is higher in protein stability index: 1.78 for the first, 2.59 for the second.

Compared with AFTMAEHLANCERLIEVEDMMVMG [N7H], AFTMAEILANCERLIEVEDMMVMG [N7I] is higher in protein stability index: 1.92 for the first, 2.05 for the second.

Compared with AFTMAEKLANCERLIEVEDMMVMG [N7K], AFTMAELLANCERLIEVEDMMVMG [N7L] is higher in protein stability index: 2.43 for the first, 2.48 for the second.

First: AFTMAEMLANCERLIEVEDMMVMG [N7M]
Second: AFTMAEPLANCERLIEVEDMMVMG [N7P]
The protein stability index of the first is lower: 1.67 for the first, 3.41 for the second.

Compared with AFTMAEQLANCERLIEVEDMMVMG [N7Q], AFTMAERLANCERLIEVEDMMVMG [N7R] is lower in protein stability index: 2.38 for the first, 2.25 for the second.

First: AFTMAESLANCERLIEVEDMMVMG [N7S]
Second: AFTMAETLANCERLIEVEDMMVMG [N7T]
The protein stability index of the first is lower: 2.45 for the first, 2.62 for the second.

Compared with AFTMAEVLANCERLIEVEDMMVMG [N7V], AFTMAEWLANCERLIEVEDMMVMG [N7W] is lower in protein stability index: 2.66 for the first, 1.49 for the second.
